The nanobody polyreactivity screen of Harvey et al. (2022)

Assay: yeast display, Sf9 membrane polyspecificity reagent, FACS + sequencing; frameworks hold sequencing errors
Procedure, shortened: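 Genes from sorted yeast were amplified by colony PCR, read by MiSeq 2 × 250 sequencing and filtered on CDR length. These cells carried a synthetic nanobody library in Saccharomyces cerevisiae BJ5465 and were sorted by FACS into low and high (top ~1%) gates on anti-HA and streptavidin fluorescence. Polyreactivity is labelled according to the gate of origin.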

QVQLVESGGGLVQAGGSLRLSCAASGSTFPRYAMGWYRPAPGKERELVAAISSSGRTYYADSVKGRFTISRDNAKNTVYLQMNSLNPEDTAVYYCNAPVARGEASYYWGQGTQVTVSS
polyreactivity (PSR sort gate): high polyreactivity

QVKLVESGGGLVQAGGSLRLSSAASGSTFDSNAMGWYRQEPGKERELVAAITRGGSTNYADSVKGRFTISRDNAKNTVYLQMNSLKPEDTAVYYCAAASETLGYATYGSGYDYWGQGTQVTVSS
polyreactivity (PSR sort gate): low polyreactivity

QVQLVESGGGLVQAGGSLRLSCAASGSNKQNAMGWYRQSPGKERELLARISKYGGSTYADSVKGRFTISRDNAKNTVYLQMNSLKPEDTAVYYCNAVKRDRNHHATKCEYAYWGQGTPVTVSS
polyreactivity (PSR sort gate): low polyreactivity

QLQLVESGGGLVQAGGSLRLSCAASGRTFRINTMGWYRPAPGKERELVATITGSGGSTYYADSVKGRFTISRDNAKNTVYLQMNSLKPEDTAVYYCAAVGDQNEYDYWGQGTQVTVSS
polyreactivity (PSR sort gate): low polyreactivity

QVQLVESGGGLVQAGGSLRLSCAASGRTFSVNAMGWYRQAPGKEREMVAAITSGASTNYADSVKGRFTISRDNAKNTVYLQMNSLKPEDTAVYYCAADATYGHVPAEYDYWGQGTQVTVSS
polyreactivity (PSR sort gate): low polyreactivity

QVQLVESGGGLVQAGGSLRLSCAASGRIISRYAMGWYRQAPGKERELVAAISRRGGSTYYADSVKGRFTISRDNAKKTVYLQMNSLKPEDTAVYYCNADTGNRGYDYWGQGTQVTVSS
polyreactivity (PSR sort gate): high polyreactivity

QVQLVESGGGLVQAGGSLRISCAASGITYKEYAMGWYRQAPGKERELVAAISISGGSTYYADSVKGRFTISRDNAKNTFYLQMNSLKPEDTAVYFCAADYAEYEYGDYYWGQGTQVTVSS
polyreactivity (PSR sort gate): low polyreactivity

QVQLVESGGGLVQAGVSLRLSCAASGNAMGWYRQAPGKERELVAAITYGGTTTYYADSVKGRFTISRDNAKNTVYLQMNSLKPEDTAVYYCAADFVFVATPLRYDYWGQGTQVTVSS
polyreactivity (PSR sort gate): low polyreactivity

QVQLVESGGGLVQAGGSLRLSCAASGSILLDNAMGWSRQAPGKERELVAAISLSGGGSTYYADSVKGRFTISRDNAKNTVYLQMNSLKPEATAVYYCAAASTYPLPYDYWGQGTQVTVSS
polyreactivity (PSR sort gate): low polyreactivity

QVQLVESGGGLVQAGGSLRLTCAASGIIFLDYVMGWYRQAPGKERELVAAINSGGSTYYADSVKGRFTISRDNAKNTVYLQMNSLKPEDTAVYYCAAVDYYKFDYWGQVTQVTVSS
polyreactivity (PSR sort gate): low polyreactivity

QVQLVESGGGLVQAGGSLRLSCAASGSTFYPNPMGWYRQAPGKERELVAAISQRGGRTYYADSVKGRFTISRDNAKNTVYLQMNSLKPEDTAVYYCAATYQGYNSWYSFGYWGQGTQVTVSS
polyreactivity (PSR sort gate): high polyreactivity

QVQLVESGGGLVQAGGSLRLSCAASGRIFSFNTMGWYRQAPGKEREFVATIRYSGGSTYADSVKGRFTISRDNAKNTVYLQMNSLKPEDTAVYYCAAAWWSYKFNRDFDYWGQGTQVTVSS
polyreactivity (PSR sort gate): low polyreactivity

QVQLVESGGGLVQAGGSLRLSCAASGSIFTQYAMGWYRQAPGKERELVAAITSSGGSTHYADSVKGRFTISRDNAKNTVYLQMNSLKPEDTAVYYCAVPSFVYATFPYGYWGQGTQVTVSS
polyreactivity (PSR sort gate): low polyreactivity

QVQLVESGGGLVQAGGSLRLSCAASGRIFTFYAMGWYRQAPAKERELVAAISSGGSTYYADSVKGRFTISRDNAKNTVYLQMNSLKPEDTAVYYCAAEPVWYADYDYWGQGTQVTVSS
polyreactivity (PSR sort gate): low polyreactivity

QVQLVESGGGLDQAGGSLRLSCAASGSIFEKYAMGWYRQAPGKERELVAGISRSGGSTYYADSVKGRFTISRDNAKNTVYLQMNSLKLEDTAFYFCAARYTRYGSFYGFGYWGQGTQVTVSS
polyreactivity (PSR sort gate): high polyreactivity

QVQLVDSGGGLVQAGGSLRLTCAACGSIFVNNSMGWSRQATGKQRELVAAISSRSSRTFYADSVKGRFTISRDNEKNTVFLQMNSLKPEDNAVYYCAVKKRAPDGDYWGLGTQVTVSS
polyreactivity (PSR sort gate): high polyreactivity

QVQLVESGGGLVQAGGSLRLTCSASGYTFPRYAMGWYRQAPGKERELVAVITRRGGSTYYADSVKGRFTISRDNAKNTVYLQMNSLKPEDTSVYYCAASDPSNKSSRPGYSYDSDSWGQGTQVTVSS
polyreactivity (PSR sort gate): high polyreactivity

QVQLVESGGGLVQAGGSLRLSCAASGSTFLNYAMGWYRQAPGKERELVAAISGRGGRTYYADSVKGRFTISRDNAKNTVYLQMNSLTPEDTAVYYCAARKWVSYTSYDYWGQGTQVTVSS
polyreactivity (PSR sort gate): high polyreactivity

QVQLVESGGGLVQAGGSLRLSCAASGSTFPYYAMGWYRQEPGKERELVASIRKRGGGTYYADSVKGRFTISRDNAKNTVYLQMNSLKPEDTAVYYCAVRVYQFRYTGYDYWGQGTQVTVSS
polyreactivity (PSR sort gate): high polyreactivity

QVQLVESGGGLVQAGGSLRLSCAASGRIFGAYALGWSRQAPGKEMELVADIRSTGSTYYADSVKGRFTISRDNAKNTVYLQMNSLKPEDTAVYYCAAKYWKWYHYGFGYWGQGTQVTVSS
polyreactivity (PSR sort gate): high polyreactivity

QVQLVESGGGLFQAGGSLRVSCAASGRTFRVYVMGSYRQAPGKERELVAAIRASGGITYYADSVKGRFTLSRDTAKNTVYLQMNSLKPEDTAVYYCAARPRTRYDYWGQGTQVTVSS
polyreactivity (PSR sort gate): high polyreactivity

QVQLVESGGGLVQAGGSLRLSCAASGFTFYNYAMGWYRQAPGKERELVAVISRSGGRTKYADSVKGRFTISRDNAKNTVYLQMNSLKPEDTAVYYCAARPSPGYYAYRYAPAIHYDYWGQGTQVTVSS
polyreactivity (PSR sort gate): high polyreactivity

QVQLVESGGGLVQAGGSLRLSCAASGRTFQYYAMGWYRQAPGKERELVAAITSGGSTYYADSVKGRFTISRDNAKNTVYLQMNSLKPEDTAVYYCAASFYYSGHDDYWGQGTQVTVSS
polyreactivity (PSR sort gate): low polyreactivity

QVQLVESGGGLVQAGGSLRLSCAASGYIFASYAMGWYRPAPGKERELVAAISIGGNTNYADSVKGRFTISRDNAKNTVYLQMNSLKPEDTAVYYCAAKTPRYRYGYWRQGTQVTVSS
polyreactivity (PSR sort gate): low polyreactivity

QVQLVESGGGLVQAGGSLRLSCAASGRTFYIYAMGWYRQAPGKERELVAAITYGGGRTFYADSVKGRFTISRDNAKNTVYLQMNSLKPEDTAVYYCARGDFYYHSRYTYYTSDYWGQGTQVTVSS
polyreactivity (PSR sort gate): high polyreactivity

QVQLVESGGGLVQAGGSLRLSGAASGSTFRGYAMGWYRQAPGKERELFAAMTYISDSTYYADSVKGRFTISRDNAKNTVYLQMNSLKPEDTAVYYCNAYYDGDWRYTSQETGDHWGQGTQVTVSS
polyreactivity (PSR sort gate): low polyreactivity

QVQLVESGGGLVQAGGSLRLSCAASGFILAQNAKGWSRQAPGKEWELVAAISRRGGRTSYADSVKGRFTISRDNAKNTVYLQMNSLKPEDTAVYYCAALPPRASSDAGGWYVAEDYWGQGTQVTVSS
polyreactivity (PSR sort gate): high polyreactivity

QVQLVESGGGLVQAGGSLRLSCAASGRTFYKNTMGWYRQAPGKERELVATITRRGGTTYYADSVKGRFTISRDNAKNTVYLQMNSLKPEDTAVYYCAKDASTEKYDYWGQGTQVTVSS
polyreactivity (PSR sort gate): low polyreactivity

QVQLVESGGGLFQAGGSLRLSCAASGSTFGWNAMGWYRHAPGKERELVAAINKSGGRTYYADSVKGRFTISRDNAKNTVYLQMISLKPEDTAVYYCAAVTPIRVTSPDYDYWGQGTQVTVSS
polyreactivity (PSR sort gate): low polyreactivity

QVQIVESGGGLVQAGGSLRLSCAASGRTFAGNAMGWYRQAPGKERELVAGISSGGSTNNADSVKGRFTISRDNAKNTVYLQMNSLNPEDTAVYYCAKRYFRKGYPLFHYAYGYWGQGTQVTVSS
polyreactivity (PSR sort gate): high polyreactivity

QVQLVESGGGLVQAGGSLRLSCAASGFIFTLYTMGWYRQAPGKERELVAAIDKNGSTYYADSVKGRFTISRDNAKNTVYLQMNSLKPEDTAVYYCAADDRYRGNREDYWGQGTQVNVSS
polyreactivity (PSR sort gate): low polyreactivity

QVQLVESGGGLVQAGGSLRLSCAASGSIFQQYAMGWYRQAPGKERELVAAISWGDGSTYYADSVKGRFTISRDNAKNTVYLQKNSLKPEDTAVYYCNAYASAPLWSLEDDYWGQGTQVTVSS
polyreactivity (PSR sort gate): low polyreactivity

QVQLVESGGGLVQAGGSRRISCAASGIIFTLYVMGWYRQAPGTERELVAAIRSGGSTYYADSVKGRVTISRDNAKNTVYLQMNSLKPEDTAVYYCAARVRSGTGVGFDYWGQGTQVTVSS
polyreactivity (PSR sort gate): high polyreactivity

QVQLVESGGGLVKAGGSLRLSCAASGFIFRTYAMGWYRQAPRKERELVAAITGRGGTTYYADSVKGRFTISRDHAKNTVYLQMNSLKAEDTAVYYCADRSRDYNYNPYDYWGLGTQVTVSS
polyreactivity (PSR sort gate): high polyreactivity

QVQLVESGGGLVQAGGSLRLSCAASGSIFKGYDMGWYRQAPGKERELVAAISSGSTNYADSVKGRFTISRDNAKNTVYLQMNSLKPEDTAVYYCNADLGRATFYQRVVIERGGYWGQGTQVTVSS
polyreactivity (PSR sort gate): low polyreactivity

QVQLVESGGGLVQAGGSLRLSCAASGRIFYSNAMGWYRQAPGKERELVAAIRDSAGSTRYADSVKGRFTISRDNAKNTVYLQMNSLKPEDTAVYYCNKDYVSIYFEYLDDYWGQGTQVTVSS
polyreactivity (PSR sort gate): low polyreactivity

QVQLVESGGGLVQAGGSLRLSSAASGRIFPGYSMGWYRQAPGKERELVASISRTGRTNYADSVKGRFTNSRDNAKNTVYLPMHSLKPEDTAVYYCAAGIVVTGYDYWGQGTQVSVSS
polyreactivity (PSR sort gate): low polyreactivity

QVQLVESGGGLVQAGGSLRLSCAASGGIFTKNAMGWYRQAPGKERELVAGISRTGGNTYYADSVKGRFTISRDNAKNTVYLQMNSLKPEDSAVYYCAAGRYYAVWQSISGFDSWGQGTQVTVSS
polyreactivity (PSR sort gate): low polyreactivity

QVQLVESGGGLVQAGGSLRLSCAASGSIFRKYAMGWYRQAPGKERELVAVITTDGSTNYADSVKGLFTISRDNAKNTVYLQMNSLKPEDTAVYYCNAVRSSIGTDNDYWGQGTQVTVSS
polyreactivity (PSR sort gate): low polyreactivity

QVQLVESGGGLVQAGGSLRLSCAASGSIFYSNAMGLSRQAPGKEREWVATITSGDSTNYADSVKGRFTISRDNAKNTVYLQMNSLKPEDTAVYYCAADSSLYEWFDWPWERGQSVESWGQGTQVTVSS
polyreactivity (PSR sort gate): low polyreactivity

QVQLVESGGGLVQAGGSLRLSCAASGLIFNNNAMGWYRQAPGKERELVAAISYRGGSTYYADSVKGRFTISRDNAKNTVYLQMNSLKPEDTAVYYCAARKISKYDYWGQGTQVTVSS
polyreactivity (PSR sort gate): high polyreactivity

QVQLVESVRGLVQAGGSLRLSCASSGSTFYGYTLGWYRQAPGKERELVAAISWSGGSTYYADSVKGRFTISRDNAKNTVYLQMNSLKPEDTAVFYCAARWGYSRRGYRGYDYWGQGTQVTVSS
polyreactivity (PSR sort gate): high polyreactivity

QVQLVESGGGLVQAGGSLRLSCAASGFTFTRYAMGWYRQAPGKERELVATITKRGGSTYYADSVKGRFTISRDNAKNTVYLQMNSLKPEDTAVYYCAADGASRALYDFWGQGTQVTVSS
polyreactivity (PSR sort gate): high polyreactivity
